Experimental data: the supplement of paper PMC10567573
± gives the standard deviation.

Assay: protein stability index of a GFP-peptide fusion (GPS, HEK-293T) (PSI 1-6); higher = more stable
[1] = treatment: DMSO, c terminus: a fixed tail appended
[2] = treatment: MLN4924 1 uM, 8 h, c terminus: a fixed tail appended
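Also: 24-mer peptide tiles fused after GFP, lentivirally expressed, FACS-sorted into six equal bins by GFP/DsRed ratio, decoded by Illumina sequencing, PSI is the read-weighted mean bin number.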

Sequence | protein stability index [1] | protein stability index [2] | protein stability index (treatment: DMSO, c terminus: native) | protein stability index (treatment: MLN4924 1 uM, 8 h, c terminus: native)
VVIFQREPESKNAPHSQGEYDVYS [PPP2R2C] | 2.5 ± 0.23 | 2.85 ± 0.27 | – | –
EQRDQLERTKSRLVNTSENLSKSR [VTI1B] | 5.18 ± 0.31 | 5.01 ± 0.18 | – | –
EAARNGKMKFVIGNGKNLVDFTFV [NSDHL] | 2.17 ± 0.47 | 2.04 ± 0.35 | – | –
QTVFQKKNLQQTTNTTSTQMTNIG [IQUB] | 4.08 ± 0.2 | 4.28 ± 0.27 | – | –
EGCTGALHILARDVHNRIVIRGLN [CTNNB1] | 2.65 ± 0.23 | 2.71 ± 0.17 | – | –
VSMLGYPFILPDMVGGNAVPQRTA [MYORG] | 2.25 ± 0.42 | 2.54 ± 0.32 | – | –
SQLPQVLHVSLGQKLVAAYVLGLL [MOSPD3] | 3.26 ± 0.94 | 2.75 ± 1.2 | – | –
GRKDITSILRAPAYPLELQGQPDP [MOSPD3] | 4.26 ± 0.15 | 4.28 ± 0.35 | – | –
DFSGLTLDGALRTFLKAFPLMGET [PSD2] | 1.91 ± 0.24 | 2.05 ± 0.34 | – | –
HPPPSTPIKLEEGDGCAREYLLP [ADD1] | – | – | 5.13 ± 0.2 | 4.81 ± 0.09
MGMNMNIGMSAAGMGLTGTMGMGM [CLINT1] | 2.48 ± 0.18 | 2.2 ± 0.28 | – | –
PAYATTRIRSQIGNTESELKKLAE [GDAP1] | 4.53 ± 0.095 | 4.53 ± 0.18 | – | –
GRGPPSEPVLTQTSEQAPSSAPRD [PTPRD] | 5.74 ± 0.22 | 5.34 ± 0.31 | – | –
HIWELSSIKNSLKVAAISESPVAE [PTGFR] | 3.11 ± 0.28 | 3.21 ± 0.39 | – | –
ERQEEQSAAIHISETLEQKPHFES [EPB41L3] | 5.43 ± 0.15 | 5.38 ± 0.28 | – | –
ARRYAGPLHHQTQRFRLDNLLNMA [ELAVL3] | 2.78 ± 0.35 | 2.75 ± 0.31 | – | –
STDSGFCLDSPGPLDSKENLENPM [CDC25A] | 5.32 ± 0.12 | 5.27 ± 0.14 | – | –
APKPDAAPSIDLFSTDAFSSPPQG [SNAP91] | 4.73 ± 0.14 | 4.84 ± 0.14 | – | –
DLIDNLKEAQYIRTERVEQAFRAI [PCMTD1] | 2.29 ± 0.17 | 2.27 ± 0.14 | – | –
VLKTRMALRKTGQYSGMLDCARRI [SLC25A25] | 2.53 ± 0.17 | 2.78 ± 0.18 | – | –
SLEIEEKINKIRWLPQQNAAYFLL [PPP2R2B] | 2.34 ± 1.1 | 2.01 ± 1.1 | – | –
FLKQGDSADETTAHKTEEENSDSD [CMTM3] | 5.63 ± 0.25 | 5.58 ± 0.43 | – | –

Sequence | protein stability index [1] | protein stability index [2] | protein stability index (treatment: DMSO, c terminus: native) | protein stability index (treatment: MLN4924 1 uM, 8 h, c terminus: native)
SASLEVVKKDHVALQVPRGKEDST [CBY2] | 5.4 ± 0.16 | 5.35 ± 0.23 | – | –
HHSLQAHFRPRFHPLPTVIIVNLL [TMEM192] | 2.68 ± 0.28 | 2.35 ± 0.48 | – | –
PLHVAQTRLYLRSHRPNMELCRDA [TEKT4] | 2.9 ± 0.17 | 3 ± 0.18 | – | –
LSNQLAVTFREENTIAFRHLFLLG [MCOLN1] | 2.48 ± 0.11 | 2.5 ± 0.18 | – | –
FHVNLGKESRAQTLQNGRRHIHHL [BRF1] | 2.66 ± 0.34 | 2.93 ± 0.41 | – | –
HLRNKTEDLEATSEHFKTTSQKVA [VAMP8] | 5.01 ± 0.24 | 5.07 ± 0.14 | – | –
LKYENDYPSVILRDPLQTDTLQND [ETS1] | 4.2 ± 0.31 | 4.53 ± 0.34 | – | –
TLSWYFLLCVNYFFYGETVTDYFF [CDS2] | 3.35 ± 0.64 | 3.48 ± 0.26 | – | –
KKINTEGDVPPSMSGSCAVCVDRV [KLHDC2] | 4.18 ± 0.34 | 4.29 ± 0.17 | – | –
SLRSSSSKLAQLTLEQILEHLDNL [INTS3] | 2.31 ± 0.2 | 2.55 ± 0.26 | – | –
ERSRDVVDDVSVSLRLWDTFGDHH [RHOBTB2] | 3.7 ± 0.14 | 3.63 ± 0.22 | – | –
EGKRKAFYTCASHVTVVILFFVPC [OR4A15] | 2.77 ± 0.18 | 3.03 ± 0.38 | – | –
VEEGNVQTLLPAACLLQLAEIQEA [KLHL20] | 3.58 ± 0.52 | 3.84 ± 0.43 | – | –
LGEEWSLHKIYLCQSGYFSSMFSG [GMCL1] | 2.72 ± 1.1 | 3.4 ± 0.97 | – | –
ATPIVPVVPPTPPVVKKKGVKRKA [BRD3] | 5.33 ± 0.26 | 5.27 ± 0.12 | – | –
KGVDFQKFCMNGAALCALGKDCFL [ETS1] | 2.62 ± 0.4 | 2.09 ± 0.28 | – | –
LGGEQAEEKAFESVIEPVQESSFR [MIA2] | 5.16 ± 0.54 | 5.44 ± 0.1 | – | –
PLESAFDHEDFTGSSSLGFTSSPS [FCHO1] | 4.81 ± 0.35 | 5.07 ± 0.15 | – | –
GVHVRRTDKVGTEAAFHPIEEYMV [FUT8] | 3.36 ± 0.29 | 3.58 ± 0.27 | – | –
DRHTKFFEEPEDPSNRSFFSEIIS [PPP2R2B] | 3.38 ± 0.1 | 3.48 ± 0.23 | – | –
YGTKKFMQELTEMLGFRPYRFYFY [SLC6A17] | 2.29 ± 0.95 | 2.28 ± 0.48 | – | –
GELRLGKNLYTNEYVAIKLEPMKS [CSNK1G3] | 2.32 ± 0.29 | 2.27 ± 0.7 | – | –

Sequence | protein stability index [1] | protein stability index [2] | protein stability index (treatment: DMSO, c terminus: native) | protein stability index (treatment: MLN4924 1 uM, 8 h, c terminus: native)
FYTCASHVTVVILFFVPCIFLYAR [OR4A15] | 3.13 ± 0.35 | 3.08 ± 0.26 | – | –
KCHLWTAMDLGFFVVMGVIGGLLG [CLCN6] | 3.14 ± 0.38 | 3 ± 0.24 | – | –
QRSTVFKTTIPEEEEEEEEAAGVV [LMNB1] | 5.6 ± 0.11 | 5.56 ± 0.22 | – | –
PDDSTSEDGIHTLTCALMLLNTDL [PSD2] | 3.12 ± 0.27 | 3.1 ± 0.34 | – | –
PPKWQIGEQEFEALMRMLDNLGYR [ADD1] | 2.35 ± 0.26 | 2.58 ± 0.22 | – | –
QMLRKTVKDEAHQAQKDPKKDRPL [PPP2R5C] | 4.89 ± 0.1 | 4.97 ± 0.24 | – | –
GADPDSRDFDNNTPLHIAAQNNCP [FEM1A] | 4.96 ± 0.39 | 5.18 ± 0.88 | – | –
EPPVTMIFMGYQNVEDEAETKKVL [PALM] | 4.07 ± 0.37 | 4.09 ± 0.051 | – | –
RDCGEEMQNGAGASRTSTIFLNGN [TNXB] | 3.99 ± 0.56 | 4.34 ± 0.23 | – | –
MLKRPVLLHLHQTAHADEFDCPSE [STEAP1] | 3.73 ± 0.29 | 3.73 ± 0.48 | – | –
FSLNPRSGSLITAGRIDREELCAQ [PCDHGA10] | 3.83 ± 0.38 | 3.93 ± 0.37 | – | –
EDELSLVKGSRVTVMEKCSDGWWR [NCK2] | 3.68 ± 0.18 | 3.69 ± 0.32 | – | –
IAERLGCTLPQLAIAWCLRNEGVS [KCNAB2] | 2.88 ± 0.44 | 2.71 ± 0.66 | – | –
YQVHDYLRSKLCSLYENDCIFDKF [PPP2R2B] | 2.58 ± 0.71 | 2.27 ± 0.48 | – | –
PTVDLNQVLNETRSQYEALVETNR [KRT34] | 3.37 ± 0.55 | 3.79 ± 0.48 | – | –
YGRSDVVVLCFSIANPNSLHHVKT [RHOBTB2] | 3.33 ± 0.47 | 2.69 ± 1.8 | – | –
IKEIDEHAPGVPKILVGNRLHLAF [RAB40B] | 1.93 ± 0.33 | 2.19 ± 0.36 | – | –
QVFRLAFRSGALDLDSCSRDGALL [MYORG] | 2.33 ± 0.29 | 2.14 ± 0.091 | – | –
IAVLGIVMLKRIHSLYRRTGASFQ [SCAMP3] | 2.34 ± 0.53 | 2.25 ± 0.18 | – | –
PVKASRSHQELHRELLMNHRRGLG [FAM107A] | 3.73 ± 0.27 | 3.95 ± 0.42 | – | –
SSSFTSIASEWFLIANRSYKVSAA [SLC22A15] | 2.26 ± 0.47 | 2.42 ± 0.31 | – | –
